Reference: US20170065662A1 (RESEARCH FOUNDATION FOR THE STATE UNIVERSITY OF NEW YORK, published 2017)

Key:
[1] = target: T1, GST-Brk (full length GST-PTK6/Brk, SignalChem) (UniProt Q13882 1-451); assay: immunoprecipitation with GST antibodies, p27 immunoblot
T1 construct: mature; Bought enzyme; also called full length Brk; GST-tagged Brk; not shown: glutathione S-transferase (GST) tag
Text: The reactions were probed by immunoblot analysis with pY88 and pY74 antibodies (FIG. 3C).

[2] = target: T2, SH3 domain of Abl displayed on phage (UniProt P00519 61-121, limits assumed); assay: phage-ELISA on immobilised GST-K2
T2 construct: domain: SH3; also called Abl-SH3
T2 sequence (P00519 61-121 limits assumed): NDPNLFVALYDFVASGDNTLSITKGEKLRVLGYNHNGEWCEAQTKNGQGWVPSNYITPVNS

[3] = target: T3, SH3 domain of Yes displayed on phage (UniProt P07947 91-152, limits assumed); assay: phage-ELISA on immobilised GST-K2
T3 construct: domain: SH3; also called Yes-SH3
T3 sequence (P07947 91-152 limits assumed): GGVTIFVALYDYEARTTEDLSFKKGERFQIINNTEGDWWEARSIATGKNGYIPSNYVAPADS

| binding result [1] | binding result [2] | binding result [3] | Binder |
| --- | --- | --- | --- |
| binds | – | – | RKWNFDFQNHKPLEGKYEWQEVEKGSLPEFYYRPPRPPKGACKVPAQES (not shown: Flag tag) [F58-106 (Flag tagged K1-site containing peptide, p27 residues 58 to 106)] |
| – | no binding | no binding | DVSGSRPAAPLIGAPA (also called K2 peptide; K2 site; not shown: glutathione S-transferase (GST) tag of the pGEX-KG vector, N-terminal) [GST-K2 (N-terminally GST-tagged p27 K2 PxxP peptide)] |
